Results taken from article PMC1540706 (2006).

B1: 6× His human Eps15-MD (530–791) [human] / human β2-appendage (700–937) used for ITC [human] (parent complex)
chain 1: STSSSETANLNEHVEGQSNLESEPIHQESPARSSPELLPSGVTDENEVTTAVTEKVCSELDNNRHSKEEDPFNVDSSSLTGPVADTNLDFFQSDPFVGSDPFKDDPFGKIDPFGGDPFKGSDPFASDCFFRQSTDPFATSSTDPFSAANNSSITSVETLKHNDPFAPGGTVVAASDSATDPFASVFGNESFGGGFADFSTLSKVNNEDPFRSATSSSVSNVVITKNVFEETSVKSEDEPPALPPKIGTPTRPCPLPPGKRSI
chain 2: IGMAPGGYVAPKAVWLPAVKAKGLEISGTFTHRQGHIYMEMNFTNKALQHMTDFAIQFNKNSFGVIPSTPLAIHTPLMPNQSIDVSLPLNTLGPVMKMEPLNNLQVAVKNNIDVFYFSCLIPLNVLFVEDGKMERQVFLATWKDIPNENELQFQIKECHLNADTVSSKLQNNNVYTIAKRNVEGQDMLYQSLKLTNGIWILAELRIQPGNPNYTLSLKCRAPEVSQYIYQVYDSILKN
B2: β-arrestin P-long peptide [not stated] / human β2-appendage (700–937) used for ITC [human] (parent complex)
chain 1: DDDIVFEDFARQRLKGMKDD
chain 2: B1 chain 2
B3: Eps15 P-short peptide [not stated] / human β2-appendage (700–937) used for ITC [human] (parent complex)
chain 1: SFGDGFADFSTL
chain 2: B1 chain 2

Variants of: B1
Experiment: ITC; stoichiometry (1.9)

| Kd | Variant |
| --- | --- |
| 11 µM | chain 2 Y189V |

Variants of: B2
Experiment: ITC

| Kd | Variant |
| --- | --- |
| 1.7 µM | chain 2 Y116A |

Variants of: B2
Experiment: ITC; stoichiometry (1.2)

| Kd | Variant |
| --- | --- |
| 0.17 µM | chain 2 R180A |

Variants of: B3
Experiment: ITC

| Kd | Variant |
| --- | --- |
| 59 µM | chain 2 Y189V |
